Source: the supplement of paper PMC11908140

B1: library; numbered along this chain (parent)
chain: MRKPRAAVGSGHRKQAASQEGRQKHAKNNSQAKPSACDGLARQPEEVVLQASVSSYHLFRDVAEVTAFRGSLLSWYDQEKRDLPWRRRAEDEMDLDRRAYAVWVSEVMLQQTQVATVINYYTGWMQKWPTLQDLASASLEEVNQLWAGLGYYSRGRRLQEGARKVVEELGGHMPRTAETLQQLLPGVGRYTAGAIASIAFGQATGVVDGNVARVLCRVRAIGADPSSTLVSQQLWGLAQQLVDPARPGDFNQAAMELGATVCTPQRPLCSQCPVESLCRARQRVEQEQLLASGSLSGSPDVEECAPNTGQCHLCLPPSEPWDQTLGVVNFPRKASRKPPREESSATCVLEQPGALGAQILLVQRPNSGLLAGLWEFPSVTWEPSEQLQRKALLQELQRWAGPLPATHLRHLGEVVHTFSHIKLTYQVYGLALEGQTPVTTVPPGARWLTQEEFHTAAVSTAMKKVFRVYQGQQPGTCMGSKRSQVSSPCSRKKPRMGQQVLDNFFRSHISTDAHSLNSAAQ

Variants of: B1
Assay: 8OG:A repair function score (normalized; synonymous = 0, nonsense = -1) (normalized log-likelihood score); higher = more repair activity (WT-like)
Settings: with 8OG:A DNA repair reporter (GFP) in HEK-293 MUTYH KO cells
Protocol: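 Saturation mutagenesis (NNN codon scan) of the MUTYH cDNA (521-aa nuclear isoform NM_001048174.1 / NP_001041639), stably expressed under doxycycline induction in HEK-293 MUTYH knockout cells. Cells were co-transfected with an 8OG:A-bearing GFP repair reporter plus mCherry and sorted 72 h later into GFP+ and GFP− bins, three replicates per tile. The Rosace log2 enrichment (GFP+ vs GFP−) was converted per tile to a normalized function score with synonymous variants centered at 0 and nonsense variants (codons 1-471) at -1; low-abundance variants were removed.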

8OG:A repair function score, by site and new letter:
S138: C -0.385; R 0.0347; N -0.128; E -0.00767; K -0.105; D -0.192; L -0.279; P -0.0208; A -0.0766; F -0.378; T 0.0193; H 0.0365; G 0.0657; W -0.724; Q -0.0419; Y -0.0612; V -0.188; M -0.0953; I -0.286
V142: H -0.882; R -0.841; E -0.728; S -0.632; D -1.15; P -0.569; I -0.297; T -0.532; A -0.377; F -0.926; Y -0.971; G -0.5; N -1.86; M -0.673; Q -0.397; W -0.941; L -0.245; K -0.84; C -0.143
E140: W -0.595; C -0.0271; Y -0.187; Q -0.159; L -0.0779; T -0.149; S -0.0988; A -0.0255; G -0.183; H -0.253; I -0.242; M -0.00715; R -0.124; N -0.0981; K -0.15; P -0.438; F -0.353; D 0.0449; V -0.181
E141: L -0.401; P -0.499; A -0.0585; I -0.599; S -0.0511; F -0.392; N 0.127; W -0.348; R -0.449; G -0.256; K -0.0452; M -0.111; C -0.219; T -0.0124; V -0.27; H 0.19; Y -0.924; D -0.251
L145: P -1.26; A 0.0661; C 0.112; H 0.0825; Q 0.154; D 0.000565; F 0.0113; N 0.0178
